{
  "source": "patent US12427163B2",
  "about": "“Anti-VTCN1 antibodies and antibody drug conjugates” (Bluefin BioMedicine, Inc., priority 2017, dated 2025)",
  "molecules": {"B1": {"name": "6D9: mouse anti-human VTCN1 antibody; VH SEQ ID NO: 113, VL SEQ ID NO: 117; 6D9 represents 6D9-mIgG2a if not otherwise specified (antibody, V domains shown)", "VH": "QIQLQQSGPGLVQPSQSLSITCTVSGFSLTSYGVQWIRQSPGKGLEWLGVIWSSGSTDYNAAFLSRLSFSKDNSKSQVFFQMNSLQADDSAIYYCARDVTTIVEGFAHWGQGTLVTVSA", "VL": "NIVMTQSPKSMSMSVGERVTLSCKASEKVGTYVSWYQQKPEQSPKLLIYGASNRYTGVPDRFTGSGSATDFTLTISSVQVEDLADYHCGQTYSYPFTFGSGTKLEIK", "notes": "mouse anti-human VTCN1 antibody; 6D9 represents 6D9-mIgG2a if not otherwise specified"}},
  "key": {"[1]": {"biological_target": "T1, human VTCN1 protein (Homo sapiens, UniProt Q7Z7D3)", "T1 construct": "His", "T1 sequence (Q7Z7D3 25-282)": "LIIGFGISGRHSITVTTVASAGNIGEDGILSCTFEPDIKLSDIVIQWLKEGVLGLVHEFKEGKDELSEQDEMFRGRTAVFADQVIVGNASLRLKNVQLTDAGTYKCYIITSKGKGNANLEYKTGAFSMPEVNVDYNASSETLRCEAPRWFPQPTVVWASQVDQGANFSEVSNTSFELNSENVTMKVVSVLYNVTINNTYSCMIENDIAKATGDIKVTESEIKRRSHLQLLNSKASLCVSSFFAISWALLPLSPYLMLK", "assay": "Affinity to recombinant VTCN1-his by OCTET Red (Protein A biosensors)", "type": "binding", "conditions": "Table 5", "procedure": "The affinity of antibodies to recombinant VTCN1 was determined on an OCTET™ Red (Pall, ForteBio) instrument. After loading reagents into a 96-well plate, the OCTET™ Red with Protein A-conjugated biosensors was programmed as follows: 30 seconds for baseline #1; 45 seconds to immobilize the antibody; 30 seconds for baseline #2; 300 seconds for association of antibody to recombinant VTCN1-his; and 300 seconds for dissociation of recombinant VTCN1-his from the antibody. Table 5 lists the affinity measured for selected antibodies."}, "[2]": {"tested_on": "Hepa1-6 tumors", "assay": "Hepa 1-6 mouse hepatoma tumor model", "type": "in vivo", "conditions": "10 mg/kg ip. twice a week, 7 doses, from day 8", "procedure": "The same proteomics and immunohistochemistry analysis used in Example 1 and Example 12 were also used to analyze tumors harvested from mice subcutaneously injected with Hepa 1-6 mouse hepatoma cells, and these tumors were fount to express VTCN1. To test the efficacy of anti-VTCN1 antibodies in this alternate syngeneic tumor model, 6-8 week old C57BL/6 female mice were injected with 2.5 million Hepa1-6 cells in matrigel. On day 8 after tumor cell implantation, when tumors were 100-200 mm3, tumor-bearing mice were randomized to two treatment groups and received either the isotype control, mIgG2a or the anti-VTCN1 antibody 6D9. Treatment was started on day 8 with mice receiving 10 mg/kg of antibody by ip. injection. Mice were treated at this dose level and route twice a week for a total of 7 doses. Tumor volume and body weight were recorded twice a week."}, "[3]": {"tested_on": "KLN205 tumors", "assay": "KLN205 syngeneic mouse lung squamous tumor model in DBA2 mice", "type": "in vivo", "conditions": "for KLN205 primary tumor growth, isotype comparison: Example 15, 200 μg (10 mg/kg) i.p. from day 9", "procedure": "For the tumor study. 6-8 week-old female DBA2 mice were implanted subcutaneously in the right flank with 2.5×10^5 mouse lung squamous carcinoma KLN205 cells in 50% matrigel on day 0. Mice were treated with PBS as a vehicle control, a mouse IgG isotype control (10 mg/kg), or anti-VTCN1 6D9 antibody (10 mg/kg) on days 3, 6, 10, 13, 15, 17, 20, and 22 following tumor implantation by intraperitoneal (i.p.) injection. Tumors were measured using an electronic caliper twice a week and tumor volume was calculated using the formula 0.52*length*width*width. Mouse body weight was also measured and recorded.\n6-8 week-old female DBA2 mice were implanted subcutaneously in the right flank with 2.5×10^5 mouse lung squamous carcinoma cell KLN205 cells in 50% matrigel on day 0. Tumors were measured on day 7 and mice are randomized to 7 treatment groups. The average size was 50 mm^3. The treatment groups were: PBS vehicle control, mIgG2a isotype control. 6D9, anti-mouse PD1 antibody RMP1-14, 6D9+RMP1-14, anti-mouse CTLA-4 antibody 9D9, and 6D9+9D9. The mice were treated on days 8, 11, 13, 15, 18, 20, 22, and 25. All antibodies were 10 mg/kg by i.p.\nTo test the activity of the 6D9 and 6D9-mIgG1 antibodies, 6-8 weeks old female DBA2 mice were implanted subcutaneously in the right flank with 0.2 million KLN205 cells in PBS on day 0. Mice were randomized on day 9 into 3 treatment groups, mIgG1 control. 6D9-mIgG1, 6D9-mIgG2a. Mice were treated on days 9, 11, 15, 18, and 22 by i.p. with 200 μg antibodies (10 mg/kg). […] However."}, "[4]": {"tested_on": "4T1 tumors", "assay": "4T1 mouse triple negative breast cancer model in Balb/C mice", "type": "in vivo", "conditions": "6D9 10 mg/kg, gemcitabine 75 mg/kg, i.p., days 5, 8, 12, 14, 16", "procedure": "6-8 week-old Balb/C mice were injected with 0.1 million of 4T1 cells in the mammary fat pad. On day 5, mice were randomized to 4 treatment groups, PBS, 6D9 (10 mg/kg), Gemcitabine (75 mg/kg), and 6D9 (10 mg/kg) plus gemcitabine (75 mg/kg). All treatments were by intraperitoneal injection and mice received a total of 5 treatments on days 5, 8, 12, 14, and 16.\nThe tumors and lymph nodes were harvested from these mice, and cells were dissociated and subjected to immune cell profiling by flow cytometry analysis."}, "[5]": {"biological_target": "T2, mouse VTCN1 protein (Mus musculus, UniProt Q7TSP5)", "T2 construct": "His", "T2 sequence (Q7TSP5 25-257)": "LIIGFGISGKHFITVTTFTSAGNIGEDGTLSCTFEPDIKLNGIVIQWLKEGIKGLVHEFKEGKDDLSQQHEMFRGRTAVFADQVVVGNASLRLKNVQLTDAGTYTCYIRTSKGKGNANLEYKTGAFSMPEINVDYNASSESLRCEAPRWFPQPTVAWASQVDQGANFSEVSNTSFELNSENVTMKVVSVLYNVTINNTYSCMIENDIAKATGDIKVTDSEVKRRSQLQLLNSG", "assay": "Cross-reactivity with mouse VTCN1 protein (method not given)", "type": "binding"}},
  "note": "“Also recorded” adds a separate entry of the source.",
  "data": [
    {"molecule": "B1", "values": [
      {"measurement": "Kdis (human)", "setting": "[1]", "result": "1.52 × 10^−3"},
      {"measurement": "Kon (human)", "setting": "[1]", "result": "6.19 × 10^5"},
      {"measurement": "Hepa1-6 tumor growth", "setting": "[2]", "result": "inhibits primary tumor growth; also recorded: inhibits tumor growth of Hepa1-6 tumors"},
      {"measurement": "primary tumor growth of KLN205 tumors", "setting": "[3]; Example 13, 10 mg/kg i.p. from day 3", "result": "inhibits primary tumor growth of KLN205 tumors"},
      {"measurement": "mice surviving at the end of the study on day 36", "setting": "[3]; Example 14", "result": "one mouse survived"},
      {"measurement": "KLN205 tumor growth, established tumors", "setting": "[3]; Example 14, 10 mg/kg i.p. from day 8", "result": "delayed tumor growth"},
      {"measurement": "mouse survival / time to tumor end point 1500 mm^3", "setting": "[3]; Example 15", "result": "prolongs the median time to endpoint irrespective of isotype"},
      {"measurement": "KLN205 primary tumor growth, isotype comparison", "setting": "[3]", "result": "inhibits primary tumor growth"},
      {"measurement": "KLN205 primary tumor growth, isotype comparison", "setting": "[3]; listed as 6D9-mIgG2a", "result": "inhibit primary tumor growth"},
      {"measurement": "4T1 tumor growth", "setting": "[4]", "result": "did not show any effect in 4T1 tumor growth"},
      {"measurement": "cross-reactivity with mouse VTCN1 protein", "setting": "[5]", "result": "cross-reacts with mouse VTCN1 protein"}
    ]}
  ]
}
